The record followed here is PMC7260724, “ABAS1 from soybean is a 1R-subtype MYB transcriptional repressor that enhances ABA sensitivity”.

The target of data set [1] is T1, GST-GmABAS1 (Glycine max/soja (soybean; the cloned …, UniProt A0A3Q9B5G2 1-289).
T1 sequence: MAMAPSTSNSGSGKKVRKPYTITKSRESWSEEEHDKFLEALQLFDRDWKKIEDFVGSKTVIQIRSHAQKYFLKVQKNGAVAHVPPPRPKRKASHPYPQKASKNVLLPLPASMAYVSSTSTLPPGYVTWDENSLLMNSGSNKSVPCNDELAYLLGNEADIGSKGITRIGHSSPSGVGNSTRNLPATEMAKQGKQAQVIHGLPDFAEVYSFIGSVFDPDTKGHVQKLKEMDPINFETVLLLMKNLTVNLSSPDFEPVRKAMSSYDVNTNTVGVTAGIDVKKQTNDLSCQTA
In words: EMSA; 72 pmol protein, 10 pmol probe; 150 mM KCl, 10 mM Tris pH 7.4, 0.1 mM EDTA, 0.1 mM DTT, EDTA-free protease inhibitor; room temperature 20 min; 6% (non-competitive) or 10% (competitive) acrylamide gel in TBE. The note with it: protein: recombinant; tags: N-terminal GST (pGEX-4T-1); blunt.

Data set [2] concerns the target T1, GST-GmABAS1. Put plainly: EMSA; 150 mM KCl, 10 mM Tris pH 7.4, 0.1 mM EDTA, 0.1 mM DTT, EDTA-free protease inhibitor; room temperature 20 min; 6% (non-competitive) or 10% (competitive) acrylamide gel in TBE. The note with it: protein: recombinant; tags: N-terminal GST (pGEX-4T-1); label: none (SYBR Green stain); blunt.

B1: Glyma.01G060300 native probe, 6-FAM (dsDNA)
DNA 1: TGAAAAATCGTGTCAGTGTCGCCACGTG
DNA 2: CACGTGGCGACACTGACACGATTTTTCA
For the molecule B1, the binding result with GST-GmABAS1 [1] was “binds”.

B2: Glyma.01G060300 native probe (dsDNA)
DNA 1: TGAAAAATCGTGTCAGTGTCGCCACGTG
DNA 2: CACGTGGCGACACTGACACGATTTTTCA
Take B2: the binding result with GST-GmABAS1 [2] was “binds”.
